The DeepSol protein solubility set

Experiment: soluble on expression in E. coli; label from the status in PepcDB or PDB records

Sequence | soluble on expression in E. coli
QSQGVLSSFPAPQAVQDNPAMPTSSGSEGNVKLCSLEEAQRIWKQKSAEIYPIMDKSSRTRLALIICNEEFDSIPRRTGAEVDITGMTMLLQNLGYSVDVKKNLTASDMTTELEAFAHRPEHKTSDSTFLVFMSHGIREGICGKKHSEQVPDILQLNAIFNMLNTKNCPSLKDKPKVIIIQAARGDSPGVVWFKDSVGVSGNLSLPTTEEFEDDAIKKAHIEKDFIAFCSSTPDNVSWRHPTMGSVFIGRLIEHMQEYACSCDVEEIFRKVRFSFEQPDGRAQMPTTERVTLTRCFYLFPGH | soluble
MGSDKIHHHHHHMSLVCSVIFIHHAFNANILDKDYAFSDGEILMVDNAVRTHFEPYERHFKEIGFNENTIKKYLQCTNIQTVTVPVPAKFLRASNVPTGLLNEMIAYLNSEERNHHNFSELLLFSCLSIFAACKGFITLLTNGVLSVSGKVRNIVNMKLAHPWKLKDICDCLYISESLLKKKLKQEQTTFSQILLDARMQHAKNLIRVEGSVNKIAEQCGYASTSYFIYAFRKHFGNSPKRVSKEYRCQRHTGMNTGNTMSALAI | not soluble
TVTSASDQTTTFIQTISPTAIEISKTYDLYASVLLAQAILESSSGQSDLSKAPNYNLFGIKGEYKGKSVQMPTLEDDGKGNMTQIQAPFRAYPNYSASLYDYAELVSSQKYASVWKSNTSSYKDATAALTGLYATDTAYASKLNQIIETYSL | not soluble
MNKLKYLQGYPEHILAQVAPMVENGKLAEWVKKKYPTMHDITSEKALFDYTQALKNKYIKKSSPLSKVVYDPKIHVVNNALGLHTFVSRIHGNKLKAKNEIRISSVFRKAPEPLLRMLVVHELAHIKEKEHNKAFYALCCHMEPEYHQLEFDARLYLTYLETLLEHHHHHH | soluble
MGSDKIHHHHHHMLEQKINVDNTALFEQLWGWTNELREKIDARFELHSDPSTENFKKYSALIGEAHGSVNTFSGPEIDWLVHSWLREPKSGFCNMHLTVWLKSQIHVPHLAIVFATVPELFFFIDYVSRTDLFTDLDYLDRYYEPVNQTYLAFLKDSRFQQYISKTLYIRQVQSHTSLCYTSPVTEETLARIHTLAHEMIDRWLGWVDEAEPVAESERDALSERDLFVRRTVAERDPDNQIAVRLFGAEMTDKLVRSLWGGDRIL | not soluble
MTQQKLELTWFNKDQALIPQERGRYGYAWVDPHDPRYCQTHYLIEGETITGEQAPKQDGTQYGERADLEPTTDNLLINGESGDVLEALTRVPELADKYVGKVKCIYIDPPFNTAQTFANYEDNLEHSVWLTMMRDRLLHMKKLLSEDGSIWVHLDDVENHRMRLLMDEVFGAGNFVAEVVWEKTYSPRNDSKGIPAVTDTILVYRKSDQFSPNRLPRTAEMNARYKNPDHDRNGPWKSGDTTAPGNMSGKVQHPSVFAIQHPVTGQFIYPTYGRMWCFGQERILSSLSRYAPYRLAEPDMKSRSKRTGIPEEQLRADVFDLVVDETARQGDKTQAFRNISLGNWPEFFITDKGFGRKVPMSKSDGRVAPNLLRWEEVGHTDGAKKEITALFPNQAA | not soluble
MGSDKIHHHHHHVEDLKNLTNQAVEKQPEIVKRFNEMIDSQHLSHAYLLTGAGGIGKKDVAQWVAMRLFCIDLQGSMPCGECEECTRIMSGQHPDVVEIAPDGQSIKVEQVRFLKSEFSKSGVEGARKVFIIEQANKMTTSAANSLLKFIEEPSGEVTAFLLAENRSLMLPTIVSRTEIIELKPLPKDRLIKELTEQNIAETDARILTRLTNDMSEIQTLVDNNWILDAHKALEKWFITATTGDITAFVDVQTRVMALAKDRFYQEKILDLMMLYAMDLLELKFDQETITYEANRRQLQELADQTNVRQLLAVADVLLPLKHQLSQNLNFQSVVEKATIKICNIFKMRGR | not soluble
MLRSVPFDLVTRLMTTHFVSRQIFIGSGRVGIGEHSENAGYQLSQRADYFHMKVGLQTTFDRPIINTRDESHSTDEYRRLHVIVGDANRMDVPQALKLGTTSMLLWLLEHADMAEIDLNEALGPLTLADPVEAMHTVSHDLTLAAPLPLETGGTTTAWQMQVTLRGLVYAAAATVYGTDTSGEPAWPDRSTRNIMAMWGQALADVATVRHADDDGRLTMREQASRLEWLLKWQLLEKLRRKTGSDWTDRRLAAVDLKWAALDPADSIFTRLAGQTERLVTDKQLAEAVGQAPADTRAWLRAEIVRRFPEQVIAASWSHLTVRGESSGDENVENSMVSLDMSNPLKFTESLCSEAFERVHTASGIVESLR | not soluble
MLFDSHAHYDNKRFDEDRFEVIKKAYDSGVSYILNAAADMASSLETVSLTRKFDFIYGAVGVHPHEVAKMSDDDIEKLKDFAKEEKIVAIGEIGLDYYYDFSPREQQKLWFARQINLAKELNLPIIVHDRDAHKDVLDIVKAEQAKDVGGVFHCYSGSVEMLKDVLENNFYISVGGTLTFKNAKRVVEVVERVPLDRLLIETDCPYLTPEPHRGKRNDSSYVRLVAEKIAKIRGMSFEEVAEITTNNAKRLFGIK | not soluble
MGSANGKTLGEVWKRELNLLDKRQFELYKRTDIVEVDRDTARRHLAEGKVDTGVAVSRGTAKLRWFHERGYVKLEGRVIDLGCGRGGWCYYAAAQKEVSGVKGFTLGRDGHEKPMNVQSLGWNIITFKDKTDIHRLEPVKCDTLLCDIGESSSSSVTEGERTVRVLDTVEKWLACGVDNFCVKVLAPYMPDVLEKLELLQRRFGGTVIRNPLSRNSTHEMYYVSGARSNVTFTVNQTSRLLMRRMRRPTGKVTLEADVILPIGTRSVGSSSHHHHHH | soluble
MTNNDPYHTLINEICALSLISTPERFYESANFKISEVDFTLQYQDRDEGRAVLIYGDMGALPTRNRDAALLALMDINFHMFSGVHSPVFSWNAQTSRVLLMGSVSLERASAEGVLLLMKSFADLANEWREHGFIGQVKTAGAPAEQPVATAAKRESLSASGKFQ | not soluble
MKRADDFQQRRAHLANLSDEELQTRFWEMAEKIVDPLLDLGKKNTTPSIERSVLLRMGFSSLEAKAIVDKTMDRGLMGKGAGHIVYKIAKEKNISVREAGLALSEGKYWDDAIQIFKGGVK | soluble
MSLTSTATDSPLKYYDIGLNLTDPMFHGIYNGKQYHPADYVKLLERAAQRHVKNALVTGSSIAESQSAIELVSSVKDLSPLKLYHTIGVHPCCVNEFADASQGDKASASIDNPSMDEAYNESLYAKVISNPSFAQGKLKELYDLMNQQAKPHDTSFRSIGEIGLDYDRFHYSSKEMQKVFFEEQLKISCLNDKLSSYPLFLHMRSACDDFVQILERFVVGFTDEKDTFQLQKLGASSSSGFYKFHPDRKLVVHSFTGSAIDLQKLLNLSPNIFIGVNGCSLRTEENLAVVKQIPTERLLLETDAPWCEIKRTHASFQYLAKYQEVRDFEYPAFKSVKKNKLADKLNAEELYMVKGRNEPCNMEQVAIVVSEVKDVDLATLIDTTWKTTCKIFGEGHHHHHH | soluble
MRRVVVTGLGALTPIGVGQEAFHKAQLAGKSGVRPITRFDASALPVRIAAEVDVDPGAYLDRKELRRLDRFVQYALIAAQLALEDAGLKPEDLDPERVGTLVGTGIGGMETWEAQSRVFLERGPNRISPFFIPMMIANMASAHIAMRYGFTGPSSTVVTACATGADALGSALRMIQLGEADLVLAGGTEAAITPMAIGAFAVMRALSTRNEEPEKASRPFTLSRDGFVMGEGAGVLVLEAYEHAKKRGARIYAELVGFGRSADAHHITEPHPEGKGAALAMARALKDAGIAPEQVGYINAHGTSTPVGDRAEVLAIKRVFGDHAKRLMVSSTKSMIGHLLGAAGAVEAIATVQALYHGVIPPTINLEDPDPELDLDFVPEPREAKVDYALSNSFAFGGHNAVLAFKRV | soluble
MDALFNHKEFIRLSHEGNINYEKLKVPKNTELVNTADQRNSHVYLIIDGFVSISMNPESNSIYTILGKGSFVNYYSLFQGNVDDFLFKTISTCTVYKYTFKDLEYFLSMFPENFGFQFFIMRDLARHAFFKSLSSETSSSDKLELSFINIGKLHGTPYEKDSVILPKEMRTSVIAAYSNLSKSSFYKQLARLKDQGKIWKNDREWVLKNKEVYDYLKAREIDV | not soluble
GPGSMSVLVKGWGRGTCKINHIRDDDISSSESEGDDANVAVPLEELNVGTQHMITEEMRFRLRRKEKLSVQDDELGRLREAMRRQVFASGLLQPGQSAGVAPRRAEIIFSCAVEIQSSGLMEEAPTASPRVGDTSAWLKQLRKFILDRVPFQRSVRVMVPRTWLARAQETDVV | not soluble
ELNNLRMTYERLRELSLNLGNRMVPPVGNFMPDSILKKMAAILPMNDSAFATLGTVEDKYRRRFKYFKATIADLSKKRSSE | soluble
GSMFPHHSITESVNYDVKTFGSSLPVKVMEALTLAEVDDQLTINIDEGGWACLVCKEKLIIWKIALSPITKLSVCKELQLPPSDFHWSADLVALSYSSPSGEAHSTQAVAVMVATREGSIRYWPSLAGEDTYTEAFVDSGGDKTYSFLTAVQGGSFILSSSGSQLIRLIPESSGKIHQHILPQGQGMLSGIGRKVSSLFGILSPSSDLTLSSVLWDRERSSFYSLTSSNISKWELDDSSEKHAYSWDINRALKENITDAIWGSESNYEAIKEGVNIRYLDLKQNCDGLVILAAAWHSADNPCLIYYSLITIEDNGCQMSDAVTVEVTQYNPPFQSEDLILCQLTVPNFSNQTAYLYNESAVYVCSTGTGKFSLPQEKIVFNAQGDSVLGAGACGGVPIIFSRNSGLVSITSRENVSILAEDLEGSLASSVAGPNSESMIFETTTKNETIA | soluble
MSLAPPEGNPAAGKVAAGLCRTCHGLNGFARIPIAPHIGGEHPSYIRHQLEAFRSGTRQHEIMSVVAASLSDAQIADLSAWFAMQKIHVALKPGVDPHAAPEACALCHGADGVAVLEDAPNLAGENSVYLETQLKAFRTGKRTHEIMSPIAAELTDAEIRAAADWYAAVQLEIDEGHHHHHH | not soluble
MQPVLVFKLTADFREDPDPRKVNLGVGAYRTDDCHPWVLPVVKKVEQKIANDNSLNHEYLPILGLAEFRSCASRLALGDDSPALKEKRVGGVQSLGGTGALRIGADFLARWYNGTNNKNTPVYVSSPTWENHNAVFSAAGFKDIRSYRYWDAEKRGLDLQGFLNDLENAPEFSIVVLHACAHNPTGIDPTPEQWKQIASVMKHRFLFPFFDSAYQGFASGNLERDAWAIRYFVSEGFEFFCAQSFSKNFGLYNERVGNLTVVGKEPESILQVLSQMEKIVRITWSNPPAQGARIVASTLSNPELFEEWTGNVKTMADRILTMRSELRARLEALKTPGTWNHITDQIGMFSFTGLNPKQVEYLVNEKHIYLLPSGRINVSGLTTKNLDYVATSIHEAVTKIAENLYFQSHHHHHHDYKDDDDK | soluble
MKQCAHTKVWQTIVAEAREQAEQEPMLASFYHATIIKHDSLKAALSYILANRLNTASMPAMAVREVIEEAFAADPSISEAAACDICATVNRDPAVSMYSMPLLYLKGYHALQGYRVANWLWRQGRKALATYFQNQISVACQVDIHPAARIGRGIMLDHATGIVIGETAVVEDDVSILQDVTLGGTGKECGDRHPKIREGVMIGAGAKILGNIEVGEGAKIGSGSVVLQAVPPHTTVAGVPARIVGRPQSDKPSLDMDQQFNGRSQTFIGGDGI | not soluble
MRKCRCLKLRNVKLINIRRIAVMMRSSKMASERSTDVQAFIGELDGGVFETKIGAVLSEVASGVMNTKTKGKVSLNLEIEPFDENRLKIKHKLSYVRPTNRGKISEEDTTETPMYVNRGGRLTILQEDQGQLLTLAGEPDGKLRAAGHMAGDPLEHHHHHH | soluble
MLKKMGEAVARVARKVNETVESGSDTLDLAECKLVSFPIGIYKVLRNVSGQIHLITLANNELKSLTSKFMTTFSQLRELHLEGNFLHRLPSEVSALQHLKAIDLSRNQFQDFPEQLTALPALETINLEENEIVDVPVEKLAAMPALRSINLRFNPLNAEVRVIAPPLIKFDMLMSPEGARAPLP | not soluble
